These results are taken from patent publication US20240101677A1.

The term Kd denotes the constant that tells how readily two partners part at equilibrium. As a reminder, the EC50 is the concentration that produces a half-maximal response.

One experiment concerns the target CD16A-158V-G129D (human). Put plainly: BLI (ForteBio), method of Example 3, mutant antigen. For orientation: BLI is a label-free optical method that tracks binding on a fibre tip over time.
Experiment [1] deals with human CD16A (type 158V) on GS-CHO cells (human) (UniProt P08637). Put plainly: flow cytometry (MFI, PE-anti-human Fc) on GS-CHO cells expressing human CD16A (type 158V). Background: In flow cytometry, cells or beads pass a laser one at a time.
Experiment [2] addresses cynomolgus monkey CD16A protein (cynomolgus monkey) (UniProt Q8SPW2). Put plainly: BLI (ForteBio), antibody on Protein A sensor, antigen 100 nM, 1:1 model.
Experiment [3] has as its target human CD16A-158F protein (human) (UniProt P08637). The experiment is described as above.
Experiment [4] concerns the target human CD16A-158V protein (human) (UniProt P08637). The experiment is described as above.
In experiment [5] the target is CD16A on human primary NK cells (human) (UniProt P08637). The experiment can be described thus: flow cytometry (MFI, PE-anti-human Fc) on human primary NK cells, donor SLB190071.
Experiment [6] shares this target. The experiment can be described thus: flow cytometry (MFI, PE-anti-human Fc) on human primary NK cells, donor SLB190084.

Chain of CD16A on human primary NK cells (human) (P08637 17-254): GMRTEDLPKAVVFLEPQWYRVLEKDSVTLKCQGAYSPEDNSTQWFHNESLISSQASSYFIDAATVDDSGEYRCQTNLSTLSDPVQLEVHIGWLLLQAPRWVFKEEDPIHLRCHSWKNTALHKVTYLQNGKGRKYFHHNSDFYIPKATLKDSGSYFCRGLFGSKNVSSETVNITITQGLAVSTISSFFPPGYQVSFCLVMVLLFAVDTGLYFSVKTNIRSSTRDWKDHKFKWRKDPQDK
Chain of CD16A-158V-G129D (human) (chain, as listed by the source G129D G129D limits assumed): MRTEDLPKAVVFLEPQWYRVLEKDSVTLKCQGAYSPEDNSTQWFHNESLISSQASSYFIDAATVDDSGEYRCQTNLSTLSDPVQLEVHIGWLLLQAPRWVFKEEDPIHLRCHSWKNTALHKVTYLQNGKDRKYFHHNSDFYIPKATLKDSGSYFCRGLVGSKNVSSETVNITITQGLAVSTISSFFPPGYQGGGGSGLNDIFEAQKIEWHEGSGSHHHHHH
Chain of cynomolgus monkey CD16A protein (cynomolgus monkey) (Q8SPW2 17-208 limits assumed): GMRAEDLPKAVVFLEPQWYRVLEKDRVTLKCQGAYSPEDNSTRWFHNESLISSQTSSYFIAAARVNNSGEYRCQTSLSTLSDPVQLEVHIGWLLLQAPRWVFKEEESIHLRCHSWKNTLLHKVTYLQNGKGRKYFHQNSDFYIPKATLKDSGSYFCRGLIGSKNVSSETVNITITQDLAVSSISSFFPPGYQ
Chain of human CD16A-158F protein (human) (P08637 17-208 limits assumed): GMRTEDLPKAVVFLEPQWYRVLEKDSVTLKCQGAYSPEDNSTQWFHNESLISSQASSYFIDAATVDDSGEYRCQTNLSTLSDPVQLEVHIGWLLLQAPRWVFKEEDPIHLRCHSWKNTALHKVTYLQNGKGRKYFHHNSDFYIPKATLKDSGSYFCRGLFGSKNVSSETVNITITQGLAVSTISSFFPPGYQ
Chain of human CD16A-158V protein (human) (P08637 17-208 F176V limits assumed): as the sequence (P08637 17-208 limits assumed) above, with F160V counted along it
Chain of human CD16A (type 158V) on GS-CHO cells (human) (P08637 17-254 F176V): as the sequence (P08637 17-254) above, with F160V counted along it

B1: 4LS21 antibody (CD16A humanized antibody 4LS21 from Affimed Therapeutics AG, in the form of ScFv-Fc) (Fc fusion, not shown: a dimerising Fc or GST; small tags and cut ends)
VH: QVQLVQSGAEVKKPGESLKVSCKASGYTFTSYYMHWVRQAPGQGLEWMGAIEPMYGSTSYAQKFQGRVTMTRDTSTSTVYMELSSLRSEDTAVYYCARGSAYYYDFADYWGQGTLVTVSS
VL: SYVLTQPSSVSVAPGQTATISCGGHNIGSKNVHWYQQRPGQSPVLVIYQDNKRPSGIPERFSGSNSGNTATLTISGTQAMDEADYYCQVWDNYSVLFGGGTKLTVL
With B1, the Kd with CD16A-158V-G129D (human) is 4.63 nM; in experiment [2] it was 7.94 nM; in experiment [3], 4.75 nM; in experiment [4] it was 7.75 nM. The EC50 in experiment [1] was 11.8 nM; in experiment [5], 2.64 nM; in experiment [6], 15.6 nM.
